Measured values published in US7575883.

Target: chemically acetylated cytochrome c

B1: recombinant GST-SIRT2 (protein)
chain: MAEPDPSHPLETQAGKVQEAQDSDSDSEGGAAGGEADMDFLRNLFSQTLSLGSQKERLLDELTLEGVARYMQSERCRRVICLVGAGISTSAGIPDFRSPSTGLYDNLEKYHLPYPEAIFEISYFKKHPEPFFALAKELYPGQFKPTICHYFMRLLKDKGLLLRCYTQNIDTLERIAGLEQEDLVEAHGTFYTSHCVSASCRHEYPLSWMKEKIFSEVTPKCEDCQSLVKPDIVFFGESLPARFFSCMQSDFLKVDLLLVMGTSLQVQPFASLISKAPLSTPRLLINKEKAGQSDPFLGMIMGLGGGMDFDSKKAYRDVAWLGECDQGCLALAELLGWKKELEDLVRREHASIDAQSGAGVPNPSTSASPKKSPPPAKDEARTTEREKPQ
- deacetylation activity, tritiated acetate release assay in vitro, with and without NAD: recombinant GST-SIRT2 deacetylates cytochrome c in a NAD dependent manner

B2: recombinant GST-SIRT3 (fragment of human SIRT3 lacking the first 100 amino acids of the N-terminus) (protein)
chain: SISFSVGASSVVGSGGSSDKGKLSLQDVAELIRARACQRVVVMVGAGISTPSGIPDFRSPGSGLYSNLQQYDLPYPEAIFELPFFFHNPKPFFTLAKELYPGNYKPNVTHYFLRLLHDKGLLLRLYTQNIDGLERVSGIPASKLVEAHGTFASATCTVCQRPFPGEDIRADVMADRVPRCPVCTGVVKPDIVFFGEPLPQRFLLHVVDFPMADLLLILGTSLEVEPFASLTEAVRSSVPRLLINRDLVGPLAWHPRSRDVAQLGDVVHGVESLVELLGWTEEMRDLVQRETGKLDGPDK
- deacetylation activity, tritiated acetate release assay in vitro, with and without NAD: recombinant GST-SIRT3 deacetylates cytochrome c in a NAD dependent manner

B3: cell derived SIRT3-GFP (pull down from 293T cell extracts) (protein)
chain: MAFWGWRAAAALRLWGRVVERVEAGGGVGPFQACGCRLVLGGRDDVSAGLRGSHGARGEPLDPARPLQRPPRPEVPRAFRRQPRAAAPSFFFSSIKGGRRSISFSVGASSVVGSGGSSDKGKLSLQDVAELIRARACQRVVVMVGAGISTPSGIPDFRSPGSGLYSNLQQYDLPYPEAIFELPFFFHNPKPFFTLAKELYPGNYKPNVTHYFLRLLHDKGLLLRLYTQNIDGLERVSGIPASKLVEAHGTFASATCTVCQRPFPGEDIRADVMADRVPRCPVCTGVVKPDIVFFGEPLPQRFLLHVVDFPMADLLLILGTSLEVEPFASLTEAVRSSVPRLLINRDLVGPLAWHPRSRDVAQLGDVVHGVESLVELLGWTEEMRDLVQRETGKLDGPDK
- deacetylation activity, 14C-nicotinamide release assay in vitro: cell derived SIRT3 deacetylates cytochrome c
